Series [1] has as its target T1, synthetic peptide from the APP beta-secretase site with the Swedish mutation SEVNL/DAEFR.
T1 chain: SEVNLDAEFR

Series [2] has as its target T2, peptide from the processing site of presenilin 1 SVNM/AEGD.
T2 chain: SVNMAEGD

Series [3] has as its target T3, synthetic peptide NCH-gamma VGSGVLLSRK
T3 chain: VGSGVLLSRK

Series [4] addresses T4, synthetic peptide PS1-gamma LVNMAEGD
T4 chain: LVNMAEGD

The target of series [5] is oxidized bovine insulin B chain, P01317.
oxidized bovine insulin B chain, P01317, sequence (P01317 25-54): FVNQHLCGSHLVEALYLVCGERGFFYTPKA
Series [6] has as its target T5, synthetic peptide from the APP beta-secretase site SEVKM/DAEFR.
T5 chain: SEVKMDAEFR

Series [7] concerns the target recombinant pro-memapsin 2 (pro-M2pd).

recombinant pro-memapsin 2 (pro-M2pd), sequence (chain, as listed by the source): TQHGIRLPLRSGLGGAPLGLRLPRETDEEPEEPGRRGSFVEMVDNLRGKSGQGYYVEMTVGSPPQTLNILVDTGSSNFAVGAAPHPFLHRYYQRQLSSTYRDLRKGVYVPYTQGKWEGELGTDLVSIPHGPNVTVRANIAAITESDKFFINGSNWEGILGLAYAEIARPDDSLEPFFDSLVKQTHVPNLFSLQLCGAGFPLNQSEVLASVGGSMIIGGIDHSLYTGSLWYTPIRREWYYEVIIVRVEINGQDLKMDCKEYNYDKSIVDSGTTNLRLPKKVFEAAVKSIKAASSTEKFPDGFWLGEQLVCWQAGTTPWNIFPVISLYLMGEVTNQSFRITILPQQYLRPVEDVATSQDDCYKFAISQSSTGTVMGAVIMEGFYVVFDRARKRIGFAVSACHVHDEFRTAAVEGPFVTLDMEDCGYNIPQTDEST

B1: recombinant memapsin 2 (M2pd), auto-activated from pro-M2pd at pH 4.0 (protein)
chain: GIRLPLRSGLGGAPLGLRLPRETDEEPEEPGRRGSFVEMVDNLRGKSGQGYYVEMTVGSPPQTLNILVDTGSSNFAVGAAPHPFLHRYYQRQLSSTYRDLRKGVYVPYTQGKWEGELGTDLVSIPHGPNVTVRANIAAITESDKFFINGSNWEGILGLAYAEIARPDDSLEPFFDSLVKQTHVPNLFSLQLCGAGFPLNQSEVLASVGGSMIIGGIDHSLYTGSLWYTPIRREWYYEVIIVRVEINGQDLKMDCKEYNYDKSIVDSGTTNLRLPKKVFEAAVKSIKAASSTEKFPDGFWLGEQLVCWQAGTTPWNIFPVISLYLMGEVTNQSFRITILPQQYLRPVEDVATSQDDCYKFAISQSSTGTVMGAVIMEGFYVVFDRARKRIGFAVSA
For the protein B1, the Km result is recorded as “Km, 1 mM” in series [1] and “Km, 15.2 mM” in series [2]. Also, the “fold increase of kcat/Km over native APP” value in series [1] is listed as 60-fold increase of kcat/Km over that for native APP. Moreover, the kcat entry is given as “tcat, 2.45 s^-1” in series [1] and “kcat, 0.67 s^-1” in series [2]. The kcat/Km entry in series [1] is “kcat/Km, 2450 s^-1M^-1”; in series [2], “kcat/Km, 43.8 s^-1M^-1”; in series [6], “kcat/Km, 39.9 s^-1M^-1”. Further, the results for the “hydrolytic sites (HPLC and mass spectrometry)” value in series [3], in series [4] and in series [5] were “Three hydrolytic sites were identified from peptide NCH-gamma”, “A single cleavage site was observed in synthetic peptide PS1-gamma” and “Two hydrolytic sites were identified on oxidized insulin B-chain”, respectively. In addition, in the series with Native proteins, the hydrolysis result was “Native proteins were not cleaved by M2pd”. In addition, the self-cleavage sites entry in series [7] is “M^2pd cleaved its pro peptide (2 sites) and the protease portion (2 sites) during a 16 h incubation after activation”.

Source of the values: patent publication US20020049303.
